Test results as given in article PMC4289141.

Legend:
[1] = biological target: ^C81/C96RIDC1 (the C81/C96 double mutant of Rosetta Interface Designed Cytochrome 1) (UniProt P0ABE7); assay: cross-linking
[2] = biological target: ^C81/C96RIDC1 (the C81/C96 double mutant of Rosetta Interface Designed Cytochrome 1) (UniProt P0ABE7); assay: AUC

abundance of polymeric species (19:1 GSH/GSSG, 1 mM, 1 day) [1]: 13%
abundance of the tetramer (air oxidation, room temperature) [1]: 48%
yield of the tetramer (19:1 GSH/GSSG, 1 mM, 1 day) [1]: 63%
stoichiometry N [2]: 4
Substance: ^C81/C96RIDC1 (the C81/C96 double mutant of Rosetta Interface Designed Cytochrome 1) (from UniProt P0ABE7 23-128) (natural protein)
